Source: US20190002846A1, “POLYPEPTIDES HAVING DEMETHYLATING ACTIVITY” (Genencor International B.V., priority 2015, published 2019)

Key:
[1] = Catechol oxidase activity assay: initial rate of 3-methoxycatechol oxidation at 400 nm (pH, copper and temperature optima); assay type: biochemical
Procedure: PPO activity was determined by measuring the initial rate of 3-methoxycatechol oxidation at 400 nm (extinction coefficient used: ε 1200 M^−1cm^−1). One unit of activity is defined as the amount of PPO activity that oxidizes 1 μmol of 3-methoxycatechol to quinone per minute. Substrate was used at a concentration of 4 mM.
The pH optima were determined by measuring the initial rate of 3-methoxycatechol oxidation with varying pHs, at room temperature and using a CuSO4 concentration of 10 μM. The pH was varied in the range of pH3-9 using Carmody buffers. Enzyme loading was applied resulting in A400 absorbance values in the range of 0.1-1. Protein concentration was determined using the BCA method.
Optimal copper concentrations for the PPOs were determined at the optimal pH by varying the concentration of CuSO4 in the range of 1-1000 μM. In these experiments the pH was controlled using 50 mM Bis-Tris buffer pH 7.0.
Temperature optima were determined by measuring A400 absorbance after 1 h incubation at temperatures in the range of 20 to 70° C. In these experiments the pH was controlled using 50 mM Bis-Tris buffer pH 7.0. Copper concentrations of (20 or 50 μM) were used to prevent chemical oxidation as background activity at higher copper concentrations.

[2] = Conversion of syringic acid by purified PPO, difference absorbance spectra after 24 h; assay type: biochemical; details: 12 mM syringic acid, purified enzyme 0.048 g/L, pH 6.5, 10 μM CuSO4, room temperature
Procedure: Syringic acid (12 mM, 2.38 g/L) was incubated with PPO7 and PPO2 from Example 5 (0.048 g/L, 2% loading (w/w)) in 50 mM BisTris buffer pH 6.5 with 10 μM CuSO4. Blank prepared without the addition of enzyme was included. Incubations were performed in HPLC vials with a total of 750 μL reaction volume at room temperature for 24 h. The reaction was stopped by adding 21 μL 1M HCl to lower the pH to ˜3. Samples were filtrated and absorbance spectra were measured (230-1000 nm, 2 nm interval). […] It is to be noted that any change in absorbance in time indicates syringic acid conversion.

[3] = Methanol formation by GC, model compound; assay type: biochemical; details: for methanol: 2% enzyme loading, approx. 48 h
Procedure: (§1) Model compounds syringic acid, syringol, 1,3-dimethoxybenzene and 3,5-dimethoxybenzoic acid (12 mM) were incubated with PPO7 from Example 2 (2% loading (w/w)) in 50 mM BisTris buffer pH 6.5 with 10 μM CuSO4. For syringic acid and syringol PPO2 from Example 2 was included as a control. Lignin and lignin-derived compounds (10 g/L) were incubated with PPO7 from Example 2 (0.5 g/L, 5% loading (w/w)). PPO2 from Example 2 was included as a control and incubated using the same conditions. Blanks prepared without the addition of enzyme were included. Incubations were performed in GC headspace vials with a total of 1 mL reaction volume at 25° C. for approximately 48 h while shaking. The reaction was stopped by adding 28 μL 1M HCl to lower the pH to ˜3. Samples were analyzed by GC for methanol formation. A calibration range of 0.23 to 11.5 mM methanol in buffer with HCl was included.

[4] = Methanol formation by GC, lignin-derived compound; assay type: biochemical; details: enzyme 0.5 g/L, 25° C., approx. 48 h
Procedure: as §1

[5] = Methanol formation by GC, summary statement for lignin and lignin-derived compounds; assay type: biochemical; details: lignin and lignin-derived compounds 10 g/L, enzyme 0.5 g/L
Procedure: as §1

[6] = target: T1, RAC incubated with LPMO9B (Thermothelomyces thermophilus, UniProt G2QCJ3); experiment: RAC hydrolysis assay with LPMO9B and PPO2, PPO7 or AbTyr in the presence of sinapic acid or syringic acid; assay type: biochemical, Myceliophthora thermophila; details: LPMO9B 5 μg/ml alone = 100%, or with added enzyme, pH 5.0, 50° C., 24 h
T1 construct: made in house; host or cells: Myceliophthora thermophila C1 strain W1L#100.1Δpyr5ΔAlp1
T1 sequence (G2QCJ3 19-323): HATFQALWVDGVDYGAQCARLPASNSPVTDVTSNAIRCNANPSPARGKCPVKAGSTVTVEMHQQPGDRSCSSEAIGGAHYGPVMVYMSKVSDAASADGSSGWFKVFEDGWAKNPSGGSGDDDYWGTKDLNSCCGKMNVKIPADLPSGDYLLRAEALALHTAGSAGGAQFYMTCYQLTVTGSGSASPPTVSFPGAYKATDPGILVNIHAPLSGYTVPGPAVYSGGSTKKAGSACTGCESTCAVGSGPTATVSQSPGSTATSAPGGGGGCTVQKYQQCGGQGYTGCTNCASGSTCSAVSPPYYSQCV
Procedure: Reducing agents sinapic acid and syringic acid were obtained from Sigma-Aldrich (St. Louis, Mo., USA). RAC was prepared from Avicel by swelling it in phosphoric acid, (Zhang Y H P, Cui J, Lynd L R, & Kuang L R (2006) A transition from cellulose swelling to cellulose dissolution by o-phosphoric acid: Evidence from enzymatic hydrolysis and supramolecular structure. Biomacromolecules 7(2):644-648.). RAC was dissolved in 50 mM phospate buffer (pH 5.0) to a final concentration of 1.5 mg/ml. Copper chloride was added to a final concentration of 2.5 μM and dimethoxy containg reducing agent sinapic acid or syringic acid to a final concentration of 2 mM. LPMO9B (5 μg/ml) with or without PPO2 (5 μg/ml), PPO7 (5 μg/ml) or AbTyr (7.5 U/ml) were added and incubated for 24 h at 50° C. in a head-over-tail rotator in portions of 1 mL total volume (Stuart® rotator, Bibby Scientific LTD, Stone, UK) at 20 rpm. Products were analysed by HPAEC and MALDI-TOF MS as described previously. (Frommhagen M, Sforza S, Westphal A H, Visser J, Hinz S W, Koetsier M J et al. Discovery of the combined oxidative cleavage of plant xylan and cellulose by a new fungal polysaccharide monooxygenase. Biotechnology for Biofuels. 2015; 8:101. doi:10.1186/s13068-015-0284-1). The Activity denoted as “Activity*” represents total release of non-oxidized and C1-oxidized gluco-oligosaccharides from RAC incubated with LPMO9B in the presence of sinapic or syringic acid as a reducing agent and with addition of either AbTyr, PPO7 or PPO2. […] Standard deviations were less than 2%.

B1: PPO7: Myceliophthora thermophila C1 polyphenoloxidase with demethylating activity, mature form SEQ ID NO: 45 (protein, listed as Myceliophthora thermophila)
chain: NPMHKRWKPNAPRNPDFPLDEVDKLEESIMPNVEAWMSKRPAKYSNCTLENAGIRREWSDLSVDERKEYISAVLCLQSKPSKIPEGEVPGALSRFDDFVATHMTMAGQLHSPTNLFAAHRYFIHAYEKALREECGYKGYQPYMNYDRYADDPLNTPLFDGSDSSMSGNGGPYNYSGIPQPFPKPYNLIPPAGGGGCVTEGPFRDMVVSLGPKGGLFHDIPRNPRADGLGSNPRCLRRDVNKYSARGARANYTYSAIMDNPDIDSFYNRYMGMPQLKGDPYPWGLHSSGHYLIGGDPGGDFYCSPGDPLFYFHHGMLDRVWWIWQMQDPENRVQAVPGTNTMPMPPLMAANLESEAAATTTHKRAVNVSDLVVDLGWTAPPVKLVDLNEQLGGLGGELCYIYV
pHopt ([1]; 3-methoxycatechol oxidation, room temperature, 10 μM CuSO4, Carmody buffers pH3-9): 7.0
T range ([1]; >50% of maximum activity): 20-55 °C
pH range ([1]; >50% of maximum activity): 6.5-8.0
[CuSO4] range ([1]; >90% of maximum activity): 100 to 1000 µM
Topt ([1]; A400 after 1 h incubation, 20 to 70° C., 50 mM Bis-Tris pH 7.0, 20 or 50 μM copper): 40 °C
[CuSO4]opt ([1]; at optimal pH, 50 mM Bis-Tris buffer pH 7.0, CuSO4 varied 1-1000 μM): 400 µM
Spectral change caused by reaction products [2]: spectral increase between 300 and 500 nm
Syringic acid conversion: negative peak in the difference absorbance spectra between 230 and 300 nm [2]: more significant for PPO7 than for PPO2
Methanol release (in words) ([3]; 1,3-dimethoxybenzene): no methanol release
methanol ([3]; 1,3-dimethoxybenzene 12 mM, 25° C., blank 0): 0 mM
Methanol release (in words) ([3]; 3,5-dimethoxybenzoic acid): no methanol release
methanol ([3]; 3,5-dimethoxybenzoic acid 12 mM, 25° C., blank 0): 0 mM
Demethylation of syringic acid (in words) ([3]; Example 9 conditions): catalyzed the demethylation
Demethylation of syringol (in words) ([3]; Example 9 conditions): catalyzed the demethylation
methanol ([3]; Syringic acid 12 mM, pH 6.5, 10 μM CuSO4, 25° C., blank 0): 4.58 mM
methanol ([3]; Syringol 12 mM, pH 6.5, 10 μM CuSO4, 25° C., blank 0.06): 5.73 mM
methanol ([4]; Carboxymodified lignin (corn) 10 g/L, blank 0): 0.35 mM
methanol ([4]; Carboxymodified lignin (wheat)1 10 g/L, blank 0): 0.31 mM
methanol ([4]; Carboxymodified lignin (wheat)2 10 g/L, blank 0): 0.33 mM
methanol ([4]; Fractionated BioLignin 10 g/L, blank 0.28): 0.46 mM
methanol ([4]; Lowest MW from lignin fractionation 10 g/L, blank 0.04): 1.43 mM
methanol ([4]; Purified wheat straw BioLignin 10 g/L, blank 0.05): 0.21 mM
Methanol concentration compared to the blank (in words) [5]: increased methanol concentration compared to the blank
Activity: total release of non-oxidized and C1-oxidized gluco-oligosaccharides from RAC ([6]; reducing agent sinapic acid 2 mM): 195%
Activity: total release of non-oxidized and C1-oxidized gluco-oligosaccharides from RAC ([6]; reducing agent syringic acid 2 mM): 142%
